This is an account of results in the Human Domainome abundance scans (Beltran et al. 2025).

± gives the uncertainty stated by the source.

B1: Zinc finger protein ZIC 2, residues 250 to 295; numbered along this chain, O95409 (parent)
chain: QCIKQELICKWIDPEQLSNPKKSCNKTFSTMHELVTHVSVEHVGGP

The data set covers variants of B1. As to the kind of experiment: abundance fitness (aPCA) (normalised: wild type 0, dead -1); higher = more abundant; growth selection in yeast, the domain comes from the species named. The following applies: Homo sapiens.
Take PCIKQELICKWIDPEQLSNPKKSCNKTFSTMHELVTHVSVEHVGGP [Q1P]: the abundance fitness is -0.915 ± 0.24.

For the variant LCIKQELICKWIDPEQLSNPKKSCNKTFSTMHELVTHVSVEHVGGP [Q1L], the abundance fitness was -0.356 ± 0.12.

Turning to WCIKQELICKWIDPEQLSNPKKSCNKTFSTMHELVTHVSVEHVGGP [Q1W], the abundance fitness was -0.321 ± 0.31.

QCIKQELICKWIDPEQLSNPKKSCNKTFSTTHELVTHVSVEHVGGP [M31T]: the abundance fitness came to 0.042 ± 0.099.

Consider QCIKQELICKWIDPEQLSNPKKSCNKTFSTMHELVTHVSVEHVNGP [G44N], for which the abundance fitness was -0.019 ± 0.11.

On to QCIKQELICKWIDPEQLSNPKKSCNKTFSTMHELVTHVSVEHVFGP [G44F], for which the abundance fitness is -0.384 ± 0.1.

Turning to QCIKQELICKWIDPEQLSNPKKSCNKTFSTMHELVTHVSVEHVLGP [G44L], the abundance fitness was -0.641 ± 0.097.

Take QCIKQELICKWIDPEQLSNPKKSCNKTFSTMHELVTHVSVEHVTGP [G44T]: the abundance fitness is -0.045 ± 0.091.

Turning to QCIKQELICKWIDPEQLSNPKKSCNKTFSTMHELVTHVSVEHVMGP [G44M], the abundance fitness is -0.372 ± 0.1.

On to QCIKQELICKWIDPEQLSNPKKSCNKTFSTMHELVEHVSVEHVGGP [T36E], for which the abundance fitness was -0.025 ± 0.097.

Take QCIKQELICKWIDPEQLSNPKKSCNKTFSTMHELVHHVSVEHVGGP [T36H]: the abundance fitness is -0.283 ± 0.12.

QCIKQELICKWIDPEQLSNPKKSCNKTFSTMHELVKHVSVEHVGGP [T36K]: the abundance fitness amounted to 0.141 ± 0.095.

On to QCIKQELICKWIDPEQLSNPKKSCNKTFSTMHELVNHVSVEHVGGP [T36N], for which the abundance fitness is -0.232 ± 0.12.

As for QCIKQELICKWIDPEQLSNPNKSCNKTFSTMHELVTHVSVEHVGGP [K21N], the abundance fitness worked out at 0.314 ± 0.11.

With QCIKQELICKWCDPEQLSNPKKSCNKTFSTMHELVTHVSVEHVGGP [I12C], the abundance fitness was 0.013 ± 0.1.

As to QCIKQELICKWGDPEQLSNPKKSCNKTFSTMHELVTHVSVEHVGGP [I12G], the abundance fitness was -0.278 ± 0.086.

For the variant QCIKQELICKWSDPEQLSNPKKSCNKTFSTMHELVTHVSVEHVGGP [I12S], the abundance fitness is -0.022 ± 0.09.

QCIKQELICKWIDPEQLSNPKKSCNKTFSTMHEIVTHVSVEHVGGP [L34I]: the abundance fitness was -0.79 ± 0.15.

QCIKQELICKWIDPEQLSNPKKSCNKTFSTMHECVTHVSVEHVGGP [L34C]: the abundance fitness was -0.797 ± 0.12.

Regarding QCIKQELICKWIDPEQLSNPKKSCNKTFSTMHEAVTHVSVEHVGGP [L34A], the abundance fitness is -0.641 ± 0.091.

QCIKQELICKWIDPEQLSNPKKSCNKTFSTMHEKVTHVSVEHVGGP [L34K]: the abundance fitness was -0.23 ± 0.1.

For the variant QCIKQELICKWIDPEQLSNPKKSCNKTFSTMHEHVTHVSVEHVGGP [L34H], the abundance fitness is -0.569 ± 0.14.

With QCIKQELICKWIDPEQLSNPKKSCNKTFSTMHEYVTHVSVEHVGGP [L34Y], the abundance fitness was 0.544 ± 0.11.

As for QCIKQELICKWIDPEQLSNPKKSCNKTFSTMHELVTHVSVEHVGGH [P46H], the abundance fitness came out at 0.193 ± 0.26.

QCIKQELICKWIDPEQLSNPKKSCNKNFSTMHELVTHVSVEHVGGP [T27N]: the abundance fitness was determined as 0.001 ± 0.11.

With QCIKYELICKWIDPEQLSNPKKSCNKTFSTMHELVTHVSVEHVGGP [Q5Y], the abundance fitness is -0.641 ± 0.1.

QCIKHELICKWIDPEQLSNPKKSCNKTFSTMHELVTHVSVEHVGGP [Q5H]: the abundance fitness is -0.382 ± 0.089.

Turning to QCIKNELICKWIDPEQLSNPKKSCNKTFSTMHELVTHVSVEHVGGP [Q5N], the abundance fitness worked out at 0.018 ± 0.093.

On to QCIKLELICKWIDPEQLSNPKKSCNKTFSTMHELVTHVSVEHVGGP [Q5L], for which the abundance fitness was -0.661 ± 0.089.

Regarding QCIKCELICKWIDPEQLSNPKKSCNKTFSTMHELVTHVSVEHVGGP [Q5C], the abundance fitness is -0.733 ± 0.11.

In the case of QCIKMELICKWIDPEQLSNPKKSCNKTFSTMHELVTHVSVEHVGGP [Q5M], the abundance fitness is -0.688 ± 0.11.

Regarding QCIKQELICKWIDPEQLSNPKKSCNKTFSTMHELVTHVSVEWVGGP [H42W], the abundance fitness was -0.707 ± 0.12.

On to QCIKQELICKWIDPEQLSNPKKSCNKTFSTMHELVTHVSVEAVGGP [H42A], for which the abundance fitness was -0.689 ± 0.096.

For QCIKQELICKWIDPEQLSNPKKSCNKTFSTMHELVTHVSVEFVGGP [H42F], the abundance fitness was -1.04 ± 0.13.

For the variant QCIKQELICKWIDPEQLSNPKKSCNKTFSTMHELVTHVSVEHVGHP [G45H], the abundance fitness was -0.443 ± 0.13.

As for QCIKQELICKWIDPEQLSNPKKSCNKTFATMHELVTHVSVEHVGGP [S29A], the abundance fitness was -0.086 ± 0.093.

For QCIKQELICKWIDPEQLSNPKKSCNKTFKTMHELVTHVSVEHVGGP [S29K], the abundance fitness was found to be 0.03 ± 0.11.

For the variant QCIKQELICKWIDPEQLSNPKKSCNKTFHTMHELVTHVSVEHVGGP [S29H], the abundance fitness amounted to 0.077 ± 0.12.

In the case of QCIKQELICKWIDPQQLSNPKKSCNKTFSTMHELVTHVSVEHVGGP [E15Q], the abundance fitness is -0.406 ± 0.13.

With QCIKQELICKWIDPRQLSNPKKSCNKTFSTMHELVTHVSVEHVGGP [E15R], the abundance fitness is -0.217 ± 0.085.

QCIKQELICKWISPEQLSNPKKSCNKTFSTMHELVTHVSVEHVGGP [D13S]: the abundance fitness was -0.352 ± 0.1.

As to QPIKQELICKWIDPEQLSNPKKSCNKTFSTMHELVTHVSVEHVGGP [C2P], the abundance fitness is -0.136 ± 0.13.

Regarding QMIKQELICKWIDPEQLSNPKKSCNKTFSTMHELVTHVSVEHVGGP [C2M], the abundance fitness is 0.612 ± 0.12.

On to QCIKQELICKWIDYEQLSNPKKSCNKTFSTMHELVTHVSVEHVGGP [P14Y], for which the abundance fitness was -0.499 ± 0.13.

Consider QCIKQELICKWIDHEQLSNPKKSCNKTFSTMHELVTHVSVEHVGGP [P14H], for which the abundance fitness was -0.199 ± 0.13.

As to QCIKQELICKWIDPEQLSNPKKSCNKTFSTMHELVTHVSWEHVGGP [V40W], the abundance fitness is -0.581 ± 0.1.

As for QCIKQELICKWIDPEQLSNPKKSCNKTFSTMHELVTHVSLEHVGGP [V40L], the abundance fitness is -0.363 ± 0.096.

As to QCIKQELICKWIDPEQLSNPKKSCNKTFSTMHELVTHVSTEHVGGP [V40T], the abundance fitness was -0.073 ± 0.1.

Take QCIKQELICKWIDPEQLSNPKKSCNKTFSTMHELVTHVSGEHVGGP [V40G]: the abundance fitness stood at 0.05 ± 0.084.

Turning to QCIKQEHICKWIDPEQLSNPKKSCNKTFSTMHELVTHVSVEHVGGP [L7H], the abundance fitness was 0.306 ± 0.11.

With QCIKQEYICKWIDPEQLSNPKKSCNKTFSTMHELVTHVSVEHVGGP [L7Y], the abundance fitness is -0.152 ± 0.11.

With QCIKQELICKWIDPEQLSVPKKSCNKTFSTMHELVTHVSVEHVGGP [N19V], the abundance fitness worked out at 0.007 ± 0.087.

With QCIKQELICKWIDPEQLSHPKKSCNKTFSTMHELVTHVSVEHVGGP [N19H], the abundance fitness came to 0.056 ± 0.13.

Turning to QCIKQELICKWIDPEQLSNPKKSCNKTFSNMHELVTHVSVEHVGGP [T30N], the abundance fitness amounted to 0.317 ± 0.12.

Turning to QCIKQELICKWIDPEQLSNPKKSCNKTFSTMHELVTHVFVEHVGGP [S39F], the abundance fitness is -0.663 ± 0.11.

With QCIKQELICKWIDPEQLSNPKKSCNKTFSTMHELVTHVIVEHVGGP [S39I], the abundance fitness was -0.681 ± 0.14.
